Laboratory results as given in patent publication US6864238.

Biological target: Bovine brain α/β tubulin (bovine) (UniProt P81947)
Test: cell-based or functional assay

Sequence of Bovine brain α/β tubulin (bovine) (P81947 whole entry, chain 1 of 2): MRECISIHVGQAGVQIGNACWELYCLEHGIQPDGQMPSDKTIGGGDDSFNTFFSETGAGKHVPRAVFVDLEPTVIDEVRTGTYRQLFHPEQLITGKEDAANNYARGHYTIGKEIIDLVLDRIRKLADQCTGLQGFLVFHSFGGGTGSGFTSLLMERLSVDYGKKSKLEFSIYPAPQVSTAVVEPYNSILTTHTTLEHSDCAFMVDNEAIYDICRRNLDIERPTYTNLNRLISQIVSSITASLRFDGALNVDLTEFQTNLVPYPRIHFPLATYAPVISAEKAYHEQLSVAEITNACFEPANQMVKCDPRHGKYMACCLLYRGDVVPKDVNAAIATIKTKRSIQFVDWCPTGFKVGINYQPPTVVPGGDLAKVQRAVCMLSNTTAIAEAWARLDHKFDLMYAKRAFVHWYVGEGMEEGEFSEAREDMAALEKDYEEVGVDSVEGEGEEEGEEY
Sequence of Bovine brain α/β tubulin (bovine) (Q6B856 whole entry, chain 2 of 2, further chain): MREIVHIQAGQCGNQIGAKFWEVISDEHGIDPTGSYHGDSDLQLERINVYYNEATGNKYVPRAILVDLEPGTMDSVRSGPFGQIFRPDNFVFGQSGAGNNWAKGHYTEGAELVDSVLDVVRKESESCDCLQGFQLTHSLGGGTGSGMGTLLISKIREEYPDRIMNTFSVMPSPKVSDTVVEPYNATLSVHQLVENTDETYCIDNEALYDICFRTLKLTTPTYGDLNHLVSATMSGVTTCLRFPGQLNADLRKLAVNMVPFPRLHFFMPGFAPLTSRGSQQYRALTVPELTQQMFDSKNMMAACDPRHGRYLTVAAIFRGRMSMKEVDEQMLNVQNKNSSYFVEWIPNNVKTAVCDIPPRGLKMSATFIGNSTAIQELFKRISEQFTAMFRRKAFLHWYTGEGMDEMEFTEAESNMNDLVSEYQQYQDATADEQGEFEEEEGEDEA

Work on GST-PN2-2 (from UniProt Q9HC77 191-310) yielded a distribution of tubulin in supernatant and pellet, in vitro microtubule sedimentation assay (15 µM tubulin) of 40 µM.
